Measurements as given in patent publication US20240117049A1 (Hoffmann-La Roche, published 2024).
Read-outs that look alike come from different tables or passages of the source.

T1: human OX40 on cells (human, UniProt P43489 29-277)
T1 sequence: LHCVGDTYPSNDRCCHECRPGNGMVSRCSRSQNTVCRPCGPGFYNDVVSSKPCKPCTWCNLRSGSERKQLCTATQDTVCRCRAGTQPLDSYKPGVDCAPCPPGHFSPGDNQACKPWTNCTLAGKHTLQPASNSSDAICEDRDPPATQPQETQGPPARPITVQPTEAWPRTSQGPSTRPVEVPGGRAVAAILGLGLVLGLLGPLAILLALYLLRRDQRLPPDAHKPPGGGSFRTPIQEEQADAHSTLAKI

T2: biotinylated human OX40 (human, UniProt P43489 29-214, limits assumed, biotinylated)
T2 sequence: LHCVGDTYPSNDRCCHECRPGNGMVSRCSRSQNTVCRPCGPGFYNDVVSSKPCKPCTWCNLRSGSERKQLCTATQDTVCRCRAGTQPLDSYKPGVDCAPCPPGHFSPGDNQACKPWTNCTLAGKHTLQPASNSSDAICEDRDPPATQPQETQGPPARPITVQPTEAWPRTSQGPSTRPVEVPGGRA


How the values were obtained:
[1] = biological target: T3, FcRn (biotinylated, coupled to streptavidin-sepharose); test: FcRn affinity chromatography, pH gradient, retention compared to standards
T3 construct: also called neonatal Fc receptor

[2] = biological target: T1, human OX40 on cells; test: cell-based or functional assay
[3] = biological target: T2, biotinylated human OX40; test: SPR, stressed against unstressed sample, normalised to anti-hu IgG capture
[4] = biological target: T4, biotinylated recombinant human FAP (human, UniProt Q12884 27-760, biotinylated); test: as above
T4 construct: the Biacore paragraphs only say biotinylated (recombinant) human FAP; also called biotinylated human FAP; recombinant huFAP

[5] = biological target: T1, human OX40 on cells; test: cell-based or functional assay; remark: listed apart in the source
[6] = biological target: T5, human Fibroblast Activation Protein (FAP) expressed on cells (human, UniProt Q12884 1-760); test: flow cytometry, NIH/3T3-huFAP clone 19 cells
T5 construct: cell surface FAP on transfected HEK cells or NIH/3T3-huFAP clone 19 fibroblasts; also called huFAP; human FAP-transfected HEK cells

[7] = biological target: T1, human OX40 on cells; test: flow cytometry, activated human CD4+ T cells
[8] = biological target: T1, human OX40 on cells; test: cell-based or functional assay; remark: listed apart in the source
[9] = biological target: T1, human OX40 on cells; test: cell-based or functional assay; remark: listed apart in the source
[10] = biological target: T4, biotinylated recombinant human FAP; test: SPR (Biacore), biotinylated recombinant FAP
[11] = biological target: T4, biotinylated recombinant human FAP; test: SPR (Biacore), biotinylated huFAP on CAP chip, Fab as analyte, 1:1 fit
[12] = biological target: T1, human OX40 on cells; test: cell-based or functional assay; remark: listed apart in the source
[13] = biological target: T1, human OX40 on cells; test: cell-based or functional assay; remark: listed apart in the source
[14] = biological target: T1, human OX40 on cells; test: flow cytometry, activated human PBMC gated on CD8+ T cells (OX40 positive), FITC anti-human Fcγ secondary, MFI baseline corrected

| Binder | FcRn affinity (relative retention) [1] | binding activity [%] after 2 weeks at pH 6.0/40°C [3] | binding activity [%] after 2 weeks at pH 7.4/37°C [3] | binding activity [%] after 2 weeks at pH 6.0/40°C [4] | binding activity [%] after 2 weeks at pH 7.4/37°C [4] | EC50 [6] | EC50 [7] | EC50 of NFκB activation, HeLa_hOx40_NFkB_Luc1, w/ hu FAP+ fibroblasts [12] | AUC of CD25 upregulation compared to reference compound [%] [13] | EC50 of CD25 upregulation on CD4+ T cells, suboptimal TCR stimulation of human PBMC with FAP+ fibroblasts [13] | other results |
| --- | --- | --- | --- | --- | --- | --- | --- | --- | --- | --- | --- |
| P1AF6455 OX40(CLC563) x FAP (1G1a_EPKSCS) (3 + 1) C-terminal crossfab fusion (bispecific antibody, human IgG1, kappa, L234A L235A, also called CLC-563, S-variant 3+1; C2) heavy 1: not shown heavy 2: not shown light 1: not shown light 2: EIVLTQSPATLSLSPGERATLSCRASESVDNYGLSFINWFQQKPGQAPRLLIYGTSNRGSGIPARFSGSGSGTDFTLTISSLEPEDFAVYFCQQSNEVPYTFGGGTKVEIKSSASTKGPSVFPLAPSSKSTSGGTAALGCLVKDYFPEPVTVSWNSGALTSGVHTFPAVLQSSGLYSLSSVVTVPSSSLGTQTYICNVNHKPSNTKVDKKVEPKSCS | -0.1 | 100% | 100% | 98% | 96% | 1.71 nM | 1.47 nM | – | – | – | EC50 of NFκB activation, HeLa_hOx40_NFkB_Luc1, w/ hu FAP+ fibroblasts [2]: 0.2 nM; EC50 of NFκB activation, HeLa_hOx40_NFkB_Luc1, w/o crosslinking [2]: 0.8 nM; EC50 of CD25 upregulation on CD4+ T cells, suboptimal TCR stimulation of human PBMC with FAP+ fibroblasts [5]: 3 pM; EC50 of increased CEACAM5 TCB mediated cytokine secretion of human PBMC with FAP+ fibroblasts [8]: 0.058 nM; EC50 of suppression of TGFβ-induced FoxP3 (FoxP3 MFI) on CD4+ CD25+ Treg cells, FAP-coated beads [9]: 0.25 nM |
| P1AD9438_Fab, anti-FAP clone 212 Fab (Fab, V domains shown, Fab; also called 212 free Fab) VH: EVLLQQSGPELVKPGASVKIACKASGYTLTDYNMDWVRQSHGKSLEWIGDIYPNTGGTIYNQKFKGKATLTIDKSSSTAYMDLRSLTSEDTAVYYCTRFRGIHYAMDYWGQGTSVTVSS VL: not shown | – | – | – | – | – | – | – | – | – | – | Kd [10]: 0.12 nM; Kd [11]: < 0.01 nM; koff [11]: < 1e-06 s⁻¹; kon [11]: 1.06e+06 M⁻¹ s⁻¹ |
| P1AE8872 OX40(MOXR0916) x FAP (1G1a) (2 + 1) C-terminal crossfab fusion (bispecific antibody, human IgG1, kappa, L234A L235A, also called MOX0916 2+1) heavy 1: not shown heavy 2: EVQLVQSGAEVKKPGASVKVSCKASGYTFTDSYMSWVRQAPGQGLEWIGDMYPDNGDSSYNQKFRERVTITRDTSTSTAYLELSSLRSEDTAVYYCVLAPRWYFSVWGQGTLVTVSSASTKGPSVFPLAPSSKSTSGGTAALGCLVEDYFPEPVTVSWNSGALTSGVHTFPAVLQSSGLYSLSSVVTVPSSSLGTQTYICNVNHKPSNTKVDEKVEPKSCDKTHTCPPCPAPEAAGGPSVFLFPPKPKDTLMISRTPEVTCVVVDVSHEDPEVKFNWYVDGVEVHNAKTKPREEQYNSTYRVVSVLTVLHQDWLNGKEYKCKVSNKALGAPIEKTISKAKGQPREPQVCTLPPSRDELTKNQVSLSCAVKGFYPSDIAVEWESNGQPENNYKTTPPVLDSDGSFFLVSKLTVDKSRWQQGNVFSCSVMHEALHNHYTQKSLSLSPG light 1: not shown light 2: EIVLTQSPATLSLSPGERATLSCRASESVDNYGLSFINWFQQKPGQAPRLLIYGTSNRGSGIPARFSGSGSGTDFTLTISSLEPEDFAVYFCQQSNEVPYTFGGGTKVEIKSSASTKGPSVFPLAPSSKSTSGGTAALGCLVKDYFPEPVTVSWNSGALTSGVHTFPAVLQSSGLYSLSSVVTVPSSSLGTQTYICNVNHKPSNTKVDKKVEPKSC | 0.15 | > 90% | > 90% | > 90% | > 90% | 1.78 nM | 0.9 nM | 0.19 nM | 106% | 0.01 nM | – |
| P1AE8871 OX40(CLC563) x FAP (1G1a) (2 + 1) C-terminal crossfab fusion (bispecific antibody, human IgG1, kappa, L234A L235A, also called CLC-563 2+1) heavy 1: not shown heavy 2: not shown light 1: not shown light 2: EIVLTQSPATLSLSPGERATLSCRASESVDNYGLSFINWFQQKPGQAPRLLIYGTSNRGSGIPARFSGSGSGTDFTLTISSLEPEDFAVYFCQQSNEVPYTFGGGTKVEIKSSASTKGPSVFPLAPSSKSTSGGTAALGCLVKDYFPEPVTVSWNSGALTSGVHTFPAVLQSSGLYSLSSVVTVPSSSLGTQTYICNVNHKPSNTKVDKKVEPKSC | – | – | – | – | – | 2.51 nM | 3.19 nM | 0.21 nM | 99% | 0.06 nM | EC50 (read off the curve) [14]: ~2 nM |

The next lines start with results.

| FcRn affinity (relative retention) [1] | binding activity [%] after 2 weeks at pH 6.0/40°C [3] | binding activity [%] after 2 weeks at pH 7.4/37°C [3] | binding activity [%] after 2 weeks at pH 6.0/40°C [4] | binding activity [%] after 2 weeks at pH 7.4/37°C [4] | EC50 [6] | EC50 [7] | EC50 of NFκB activation, HeLa_hOx40_NFkB_Luc1, w/ hu FAP+ fibroblasts [12] | AUC of CD25 upregulation compared to reference compound [%] [13] | EC50 of CD25 upregulation on CD4+ T cells, suboptimal TCR stimulation of human PBMC with FAP+ fibroblasts [13] | Binder | other results |
| --- | --- | --- | --- | --- | --- | --- | --- | --- | --- | --- | --- |
| -0.1 | 100% | 99% | 99% | 95% | 1.22 nM | 1.64 nM | – | – | – | P1AF6454 OX40(CLC563) x FAP (1G1a_EPKSCD) (3 + 1) C-terminal crossfab fusion (bispecific antibody, human IgG1, kappa, L234A L235A, also called CLC-563, D-variant 3+1; 3+1 CLC563/H212-D) heavy 1: not shown heavy 2: not shown light 1: not shown light 2: EIVLTQSPATLSLSPGERATLSCRASESVDNYGLSFINWFQQKPGQAPRLLIYGTSNRGSGIPARFSGSGSGTDFTLTISSLEPEDFAVYFCQQSNEVPYTFGGGTKVEIKSSASTKGPSVFPLAPSSKSTSGGTAALGCLVKDYFPEPVTVSWNSGALTSGVHTFPAVLQSSGLYSLSSVVTVPSSSLGTQTYICNVNHKPSNTKVDKKVEPKSCD | EC50 of NFκB activation, HeLa_hOx40_NFkB_Luc1, w/ hu FAP+ fibroblasts [2]: 0.2 nM; EC50 of NFκB activation, HeLa_hOx40_NFkB_Luc1, w/o crosslinking [2]: 1.9 nM; EC50 of CD25 upregulation on CD4+ T cells, suboptimal TCR stimulation of human PBMC with FAP+ fibroblasts [5]: 1 pM; EC50 of increased CEACAM5 TCB mediated cytokine secretion of human PBMC with FAP+ fibroblasts [8]: 0.144 nM; EC50 of suppression of TGFβ-induced FoxP3 (FoxP3 MFI) on CD4+ CD25+ Treg cells, FAP-coated beads [9]: 0.11 nM |
| -0.22 | > 90% | > 90% | > 90% | > 90% | 2.7 nM | 0.69 nM | 0.31 nM | 100% | 0.02 nM | P1AE8875 OX40(MOXR0916) x FAP (1G1a) (3 + 1) C-terminal crossfab fusion (bispecific antibody, human IgG1, kappa, L234A L235A, also called MOX0916 3+1) heavy 1: not shown heavy 2: EVQLVQSGAEVKKPGASVKVSCKASGYTFTDSYMSWVRQAPGQGLEWIGDMYPDNGDSSYNQKFRERVTITRDTSTSTAYLELSSLRSEDTAVYYCVLAPRWYFSVWGQGTLVTVSSASTKGPSVFPLAPSSKSTSGGTAALGCLVEDYFPEPVTVSWNSGALTSGVHTFPAVLQSSGLYSLSSVVTVPSSSLGTQTYICNVNHKPSNTKVDEKVEPKSCGGGGSGGSGGEVQLVQSGAEVKKPGASVKVSCKASGYTFTDSYMSWVRQAPGQGLEWIGDMYPDNGDSSYNQKFRERVTITRDTSTSTAYLELSSLRSEDTAVYYCVLAPRWYFSVWGQGTLVTVSSASTKGPSVFPLAPSSKSTSGGTAALGCLVEDYFPEPVTVSWNSGALTSGVHTFPAVLQSSGLYSLSSVVTVPSSSLGTQTYICNVNHKPSNTKVDEKVEPKSCDKTHTCPPCPAPEAAGGPSVFLFPPKPKDTLMISRTPEVTCVVVDVSHEDPEVKFNWYVDGVEVHNAKTKPREEQYNSTYRVVSVLTVLHQDWLNGKEYKCKVSNKALGAPIEKTISKAKGQPREPQVCTLPPSRDELTKNQVSLSCAVKGFYPSDIAVEWESNGQPENNYKTTPPVLDSDGSFFLVSKLTVDKSRWQQGNVFSCSVMHEALHNHYTQKSLSLSPG light 1: not shown light 2: EIVLTQSPATLSLSPGERATLSCRASESVDNYGLSFINWFQQKPGQAPRLLIYGTSNRGSGIPARFSGSGSGTDFTLTISSLEPEDFAVYFCQQSNEVPYTFGGGTKVEIKSSASTKGPSVFPLAPSSKSTSGGTAALGCLVKDYFPEPVTVSWNSGALTSGVHTFPAVLQSSGLYSLSSVVTVPSSSLGTQTYICNVNHKPSNTKVDKKVEPKSC | EC50 of NFκB activation, HeLa_hOx40_NFkB_Luc1, w/o crosslinking [12]: 3.94 nM |
| -0.14 | > 90% | > 90% | > 90% | > 90% | 2.52 nM | 3.62 nM | 0.24 nM | 100% | 0.04 nM | P1AE8874 OX40(CLC563) x FAP (1G1a) (3 + 1) C-terminal crossfab fusion (bispecific antibody, human IgG1, kappa, L234A L235A, also called CLC-563 3+1) heavy 1: not shown heavy 2: not shown light 1: not shown light 2: EIVLTQSPATLSLSPGERATLSCRASESVDNYGLSFINWFQQKPGQAPRLLIYGTSNRGSGIPARFSGSGSGTDFTLTISSLEPEDFAVYFCQQSNEVPYTFGGGTKVEIKSSASTKGPSVFPLAPSSKSTSGGTAALGCLVKDYFPEPVTVSWNSGALTSGVHTFPAVLQSSGLYSLSSVVTVPSSSLGTQTYICNVNHKPSNTKVDKKVEPKSC | EC50 (read off the curve) [14]: ~3 nM; EC50 of NFκB activation, HeLa_hOx40_NFkB_Luc1, w/o crosslinking [12]: 0.79 nM |
